Experimental data from patent US20090018101.

What was measured:
[1] = target: M.TaqI (DNA adenine-N6 methyltransferase) (UniProt P14385); settings: natural cofactor AdoMet; R.TaqI protection assay, 60 C 4 h; analogs 3: 10, 4: <5, 5: 80, 6: 10, 7: 1280, 8: 640, 9: 640; cofactor 10: 11 u/ug (1 h)
[2] = system: M.SssI Q142A (DNA cytosine-C5 methyltransferase) Q142A (Spiroplasma sp.?); settings: natural cofactor AdoMet; R.BstUI protection assay, 37 C; analogs 5: 1.2, 7: 0.6
[3] = system: M.BcnIB (DNA cytosine-N4 methyltransferase); settings: natural cofactor AdoMet; R.BcnI protection assay, 37 C; analogs 3-5: <7, 6: 0, 7: 28, 8: 14
M.TaqI V21G V21G = settings: natural cofactor AdoMet; R.TaqI protection assay; analogs 3: 5, 4: <5, 5: 640, 6: 20, 7: 80, 8: 80, 9: 2560
M.HhaI Q82A Q82A = target: T1, M.HhaI Q82A Q82A (UniProt P05102); settings: natural cofactor AdoMet; R.Hin6I protection assay; analogs 3: 7, 4: 0, 5: 29, 6: <4, 7: 58, 8: <4
T1 sequence: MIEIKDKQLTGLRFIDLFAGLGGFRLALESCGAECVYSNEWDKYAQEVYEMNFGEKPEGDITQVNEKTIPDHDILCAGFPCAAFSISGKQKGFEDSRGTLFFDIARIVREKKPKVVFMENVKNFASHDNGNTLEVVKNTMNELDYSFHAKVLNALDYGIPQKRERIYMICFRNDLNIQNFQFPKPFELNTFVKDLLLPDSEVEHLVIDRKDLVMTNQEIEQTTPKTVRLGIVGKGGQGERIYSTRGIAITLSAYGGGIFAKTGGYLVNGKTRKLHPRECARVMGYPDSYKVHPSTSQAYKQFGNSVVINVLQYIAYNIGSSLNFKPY

[4] = system: M.HhaI (DNA cytosine-C5 methyltransferase); settings: natural cofactor AdoMet; R.Hin6I protection assay, 37 C; analogs 3: <4, 4: 0, 5: 7, 6: <4, 7: 29, 8: <4

Sequence of M.TaqI (DNA adenine-N6 methyltransferase) (P14385 whole entry): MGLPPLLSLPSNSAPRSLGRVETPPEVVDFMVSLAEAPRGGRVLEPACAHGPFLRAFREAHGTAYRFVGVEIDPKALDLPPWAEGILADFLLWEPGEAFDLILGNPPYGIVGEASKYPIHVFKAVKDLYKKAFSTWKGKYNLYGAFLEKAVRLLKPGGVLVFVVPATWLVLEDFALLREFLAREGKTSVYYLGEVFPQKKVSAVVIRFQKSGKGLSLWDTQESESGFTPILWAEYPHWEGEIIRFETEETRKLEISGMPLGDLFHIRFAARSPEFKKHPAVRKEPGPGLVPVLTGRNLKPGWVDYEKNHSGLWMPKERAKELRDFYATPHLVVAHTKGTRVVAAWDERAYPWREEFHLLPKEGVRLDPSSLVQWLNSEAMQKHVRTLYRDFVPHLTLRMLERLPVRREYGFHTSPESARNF

phage lambda DNA (48502 bp)
activity [1]: 41000 u/µg | activity [2]: 20 u/µg | activity [3]: 444 u/µg | activity (M.TaqI V21G V21G): 320 u/µg | activity (M.HhaI Q82A Q82A): 115 u/µg | activity [4]: 460 u/µg
